Drawing on patent US20240150490A1 (MABPRO A S, published 2024), this text covers Kd for eight molecules.

To fix the notation:
B1: CA9hu-1_HC2LC1 (antibody, V domains shown)
VH: EVRLVESGGGLVQPGGSLRLSCAASGFTFTDYYMHWVRQAPGKGLEWLGFIRNKASGYTPQYSASVKGRFTISRDDSTNSLYLQMNSLKTEDTAIYYCVRGGHAGSNYWYFDVWGQGTLVTVSS
VL: DIQMTQSPSSLSASVGDRVTITCHVSQNINVWLSWYQQKPGKAPNLLIYQASNLHTGVPSRFSGSGSGTHFTLTISSLQPEDIATYYCQQGQSYPFTFGGGTKVEIK
notes: Humanized from murine VII/20; also called HC2LC1 (CA9hu-1)
B2: CA9hu-1_HC3LC3 (antibody, V domains shown)
VH: QVQLVQSGGGLVQPGRSLRLSCTASGFTFTDYYMHWVRQAPGKGLEWVGFIRNKASGYTPQYSASVKGRFTISRDDSKTIAYLQMNSLKTEDTAVYYCVRGGHAGSNYWYFDVWGQGTLVTVSS
VL: DIQMTQSPSSLSASVGDRVTITCHVSQNINVWLSWYQQKPGEAPKLLIYQASNLHTGVPSRFSGSGSGTDFTLTISSLQPEDFATYYCQQGQSYPFTFGQGTKLEIK
notes: Humanized from murine VII/20; also called HC3LC3 (CA9hu-1)
B3: CA9hu-1_HC3LC5 (antibody, V domains shown)
VH: QVQLVQSGGGLVQPGRSLRLSCTASGFTFTDYYMHWVRQAPGKGLEWVGFIRNKASGYTPQYSASVKGRFTISRDDSKTIAYLQMNSLKTEDTAVYYCVRGGHAGSNYWYFDVWGQGTLVTVSS
VL: DIQMTQSPSSLSASVGDRVTITCHVSQNINVWLSWYQQKPGKAPKLLIYQASNLHTGVPSRFSGSGSGTDFTFTISSLQPEDIATYYCQQGQSYPFTFGQGTKLEIK
notes: Humanized from murine VII/20; also called HC3LC5 (CA9hu-1)
B4: CA9hu-1_HC2LC4 (antibody, V domains shown)
VH: EVRLVESGGGLVQPGGSLRLSCAASGFTFTDYYMHWVRQAPGKGLEWLGFIRNKASGYTPQYSASVKGRFTISRDDSTNSLYLQMNSLKTEDTAIYYCVRGGHAGSNYWYFDVWGQGTLVTVSS
VL: DIQMTQSPSSLSASVGDRVTINCHVSQNINVWLSWYQQKPGEAPKLLIYQASNLHTGVPSRFSGSGSGTGFTLTIRSLQPEDYATYYCQQGQSYPFTFGQGTKLEIK
notes: Humanized from murine VII/20; also called HC2LC4 (CA9hu-1)
B5: CA9hu-1_HC2LC2 (antibody, V domains shown)
VH: EVRLVESGGGLVQPGGSLRLSCAASGFTFTDYYMHWVRQAPGKGLEWLGFIRNKASGYTPQYSASVKGRFTISRDDSTNSLYLQMNSLKTEDTAIYYCVRGGHAGSNYWYFDVWGQGTLVTVSS
VL: DIQMTQSPSTLSASVGDRVTITCHVSQNINVWLSWYQQKPGNAPKLLIYQASNLHTGVPSRFSGSGSGTEFTLTIGSLQPDDFVTYYCQQGQSYPFTFGQGTKVEIK
notes: Humanized from murine VII/20; also called HC2LC2 (CA9hu-1)
B6: CA9hu-1_HC3LC4 (antibody, V domains shown)
VH: QVQLVQSGGGLVQPGRSLRLSCTASGFTFTDYYMHWVRQAPGKGLEWVGFIRNKASGYTPQYSASVKGRFTISRDDSKTIAYLQMNSLKTEDTAVYYCVRGGHAGSNYWYFDVWGQGTLVTVSS
VL: DIQMTQSPSSLSASVGDRVTINCHVSQNINVWLSWYQQKPGEAPKLLIYQASNLHTGVPSRFSGSGSGTGFTLTIRSLQPEDYATYYCQQGQSYPFTFGQGTKLEIK
notes: Humanized from murine VII/20; also called HC3LC4 (CA9hu-1)
B7: CA9hu-1_HC2LC5 (antibody, V domains shown)
VH: EVRLVESGGGLVQPGGSLRLSCAASGFTFTDYYMHWVRQAPGKGLEWLGFIRNKASGYTPQYSASVKGRFTISRDDSTNSLYLQMNSLKTEDTAIYYCVRGGHAGSNYWYFDVWGQGTLVTVSS
VL: DIQMTQSPSSLSASVGDRVTITCHVSQNINVWLSWYQQKPGKAPKLLIYQASNLHTGVPSRFSGSGSGTDFTFTISSLQPEDIATYYCQQGQSYPFTFGQGTKLEIK
notes: Humanized from murine VII/20; also called HC2LC5 (CA9hu-1)
B8: CA9hu-1_HC2LC3 (antibody, V domains shown)
VH: EVRLVESGGGLVQPGGSLRLSCAASGFTFTDYYMHWVRQAPGKGLEWLGFIRNKASGYTPQYSASVKGRFTISRDDSTNSLYLQMNSLKTEDTAIYYCVRGGHAGSNYWYFDVWGQGTLVTVSS
VL: DIQMTQSPSSLSASVGDRVTITCHVSQNINVWLSWYQQKPGEAPKLLIYQASNLHTGVPSRFSGSGSGTDFTLTISSLQPEDFATYYCQQGQSYPFTFGQGTKLEIK
notes: Humanized from murine VII/20; also called HC2LC3 (CA9hu-1)

This experiment deals with recombinant human CA IX (human, UniProt Q16790 38-414). Put plainly: SPR (Biacore 2000), antibody captured on CM5 chip, rh CA IX in flow, 25 C. Here is the method:
In order to determinate the antigen-binding affinity of humanized variants, measurements of affinity constant (KD) for antibodies binding to CA IX were performed by SPR using a Biacore 2000 (T200 in case of CA9hu-2) instrument (GE Healthcare, Piscataway, NJ USA). Each humanized antibody variant was captured on the CM5 sensor chip and recombinant human CA IX (rh CA IX; 42 kDa; R&D Systems, Inc., Minneapolis MN, USA) protein as an antigen was added to the buffer flowing over the chip. The setting details of quantitative interaction analysis between humanized antibodies and rh CA IX were as follows: flow rate 30 μl/min; analysis temperature 25° C.; analysis buffer (10mM HEPES pH 7.4, 150 mM NaCl, […], 0.05% Tween 20). Results from SPR analysis are expressed as the equilibrium dissociation constant (KD) (Table 7).
On to B1, for which the Kd (usually the constant that tells how readily two partners part at equilibrium) was determined as 60 nM.
Under B2 stands 82 nM.
On to B3, for which the Kd came out at 83 nM.
Consider B4, for which the Kd turned out to be 60 nM.
Consider B5, for which the dissociation constant Kd stood at 53 nM.
As for B6, the Kd is 97 nM.
Under B7 stands 56 nM; under B8, 51 nM.
